Results from article PMC6322740, “Structural characterization of a pathogenicity-related superoxide dismutase codified by a probably essential gene in Xanthomonas citri subsp. citri” (PLoS ONE, 2019).

Target: the molecule itself
Experiment: SEC; Superdex 200 10/300, 50 mM Tris-HCl pH 8.0, 150 mM NaCl; tag removed with thrombin; oligomeric state estimated from the molecular mass

B1: XcSOD, manganese containing superoxide dismutase from Xanthomonas citri subsp. citri (enzyme)
chain: MAYTLPQLPYAYDALEPNIDAQTMEIHHTKHHQTYINNVNAALEGTEYADLPIEELVSKLKSLPENLQGPVRNNGGGHANHSLFWTVLSPNGGGEPKGEVAKAIDKDLGGFEKFKEAFTKAAVSRFGSGWAWLSVTPDKKLVVESTANQDSPLFEGNTPILGLDVWEHAYYLKYQNRRPEYIGAFYNAVNWEEVERRYHAAIA
notes: Cloned in pET28a; His-tag removed with thrombin before size exclusion chromatography and crystallization; also called MnSOD; product of the sodM gene (XAC2386); source: E. coli BL21 (DE3), purified (Ni-NTA, thrombin, size exclusion chromatography); not shown: His-tag, N-terminal, cleaved
- stoichiometry N: 2
